Here are results for six molecules from US20220033505A1 (Janssen / Centocor, published 2022).

The chains are these.
B1: HC3B232 (CD3W246-LH-scFv-Fc x MHGB732-Fab-Fc) (bispecific antibody, human IgG1, kappa, L234A L235A)
scFv: DIQMTQSPSSLSASVGDRVTITCRARQSIGTAIHWYQQKPGKAPKLLIKYASESISGVPSRFSGSGSGTDFTLTISSVQPEDFATYYCQQSGSWPYTFGQGTKLEIKGGSEGKSSGSGSESKSTGGSEVQLVESGGGLVKPGGSLRLSCAASGFTFSRYNMNWVRQAPGKGLEWVSSISTSSNYIYYADSVKGRFTFSRDNAKNSLDLQMSGLRAEDTAIYYCTRGWGPFDYWGQGTLVTVSSEPKSSDKTHTCPPCPAPEAAGGPSVFLFPPKPKDTLMISRTPEVTCVVVSVSHEDPEVKFNWYVDGVEVHNAKTKPREEQYNSTYRVVSVLTVLHQDWLNGKEYKCKVSNKALPAPIEKTISKAKGQPREPQVYVYPPSREEMTKNQVSLTCLVKGFYPSDIAVEWESNGQPENNYKTTPPVLDSDGSFALVSKLTVDKSRWQQGNVFSCSVMHEALHNHYTQKSLSLSPGK
heavy: QVQLQQSGPGLVKPSQTLSLTCAISGDSVSSNSAAWNWIRQSPSRGLEWLGRTYYRSKWYNDYAVSVKSRITINPDTSKNQISLQLNSVTPEDTAVYYCAGDRRYGIVGLPFAYWGQGTLVTVSSASTKGPSVFPLAPSSKSTSGGTAALGCLVKDYFPEPVTVSWNSGALTSGVHTFPAVLQSSGLYSLSSVVTVPSSSLGTQTYICNVNHKPSNTKVDKKVEPKSCDKTHTCPPCPAPEAAGGPSVFLFPPKPKDTLMISRTPEVTCVVVSVSHEDPEVKFNWYVDGVEVHNAKTKPREEQYNSTYRVVSVLTVLHQDWLNGKEYKCKVSNKALPAPIEKTISKAKGQPREPQVYVLPPSREEMTKNQVSLLCLVKGFYPSDIAVEWESNGQPENNYLTWPPVLDSDGSFFLYSKLTVDKSRWQQGNVFSCSVMHEALHNHYTQKSLSLSPG
light: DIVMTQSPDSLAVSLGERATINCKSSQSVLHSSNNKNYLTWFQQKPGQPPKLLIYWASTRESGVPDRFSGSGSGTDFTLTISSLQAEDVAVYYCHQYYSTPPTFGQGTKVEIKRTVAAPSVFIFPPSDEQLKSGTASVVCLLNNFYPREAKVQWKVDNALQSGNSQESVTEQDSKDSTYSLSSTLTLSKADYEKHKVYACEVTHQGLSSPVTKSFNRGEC
B2: HC3B231 (CD3B450-LH-scFv-Fc x MHGB732-Fab-Fc) (bispecific antibody, human IgG1, kappa, L234A L235A)
scFv: QSALTQPASVSGSPGQSITISCTGTSSNIGTYKFVSWYQQHPGKAPKVMIYEVSKRPSGVSNRFSGSKSGNTASLTISGLQAEDEADYYCVSYAGSGTLLFGGGTKLTVLGGSEGKSSGSGSESKSTGGSQVQLQQSGPGLVKPSQTLSLTCAISGDSVFNNNAAWSWIRQSPSRGLEWLGRTYYRSKWLYDYAVSVKSRITINPDTSKNQFSLQLNSVTPEDTAVYYCARGYSSSFDYWGQGTLVTVSSEPKSSDKTHTCPPCPAPEAAGGPSVFLFPPKPKDTLMISRTPEVTCVVVSVSHEDPEVKFNWYVDGVEVHNAKTKPREEQYNSTYRVVSVLTVLHQDWLNGKEYKCKVSNKALPAPIEKTISKAKGQPREPQVYVYPPSREEMTKNQVSLTCLVKGFYPSDIAVEWESNGQPENNYKTTPPVLDSDGSFALVSKLTVDKSRWQQGNVFSCSVMHEALHNHYTQKSLSLSPG
heavy: QVQLQQSGPGLVKPSQTLSLTCAISGDSVSSNSAAWNWIRQSPSRGLEWLGRTYYRSKWYNDYAVSVKSRITINPDTSKNQISLQLNSVTPEDTAVYYCAGDRRYGIVGLPFAYWGQGTLVTVSSASTKGPSVFPLAPSSKSTSGGTAALGCLVKDYFPEPVTVSWNSGALTSGVHTFPAVLQSSGLYSLSSVVTVPSSSLGTQTYICNVNHKPSNTKVDKKVEPKSCDKTHTCPPCPAPEAAGGPSVFLFPPKPKDTLMISRTPEVTCVVVSVSHEDPEVKFNWYVDGVEVHNAKTKPREEQYNSTYRVVSVLTVLHQDWLNGKEYKCKVSNKALPAPIEKTISKAKGQPREPQVYVLPPSREEMTKNQVSLLCLVKGFYPSDIAVEWESNGQPENNYLTWPPVLDSDGSFFLYSKLTVDKSRWQQGNVFSCSVMHEALHNHYTQKSLSLSPG
light: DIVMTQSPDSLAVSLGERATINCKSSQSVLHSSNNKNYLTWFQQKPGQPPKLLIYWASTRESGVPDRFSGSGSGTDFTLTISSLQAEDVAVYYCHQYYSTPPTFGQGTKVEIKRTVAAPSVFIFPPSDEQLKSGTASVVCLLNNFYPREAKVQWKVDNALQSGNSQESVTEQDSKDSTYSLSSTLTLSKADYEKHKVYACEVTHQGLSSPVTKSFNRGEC
B3: HC3B238 (CD3W246-HL-scFv-Fc x MHGB738-Fab-Fc) (bispecific antibody, human IgG1, kappa, L234A L235A)
scFv: EVQLVESGGGLVKPGGSLRLSCAASGFTFSRYNMNWVRQAPGKGLEWVSSISTSSNYIYYADSVKGRFTFSRDNAKNSLDLQMSGLRAEDTAIYYCTRGWGPFDYWGQGTLVTVSSGGSEGKSSGSGSESKSTGGSDIQMTQSPSSLSASVGDRVTITCRARQSIGTAIHWYQQKPGKAPKLLIKYASESISGVPSRFSGSGSGTDFTLTISSVQPEDFATYYCQQSGSWPYTFGQGTKLEIKEPKSSDKTHTCPPCPAPEAAGGPSVFLFPPKPKDTLMISRTPEVTCVVVSVSHEDPEVKFNWYVDGVEVHNAKTKPREEQYNSTYRVVSVLTVLHQDWLNGKEYKCKVSNKALPAPIEKTISKAKGQPREPQVYVYPPSREEMTKNQVSLTCLVKGFYPSDIAVEWESNGQPENNYKTTPPVLDSDGSFALVSKLTVDKSRWQQGNVFSCSVMHEALHNHYTQKSLSLSPG
heavy: QVQLQQSGPGLVKPSQTLSLTCAISGDSVSSNRAAWNWIRQSPSRGLEWLGRTYYRSKWYNDYAVSVKSRITINPDTSKNQISLQLNSVTPEDTAVYYCARVRPGIPFDYWGQGTPVTVSSASTKGPSVFPLAPSSKSTSGGTAALGCLVKDYFPEPVTVSWNSGALTSGVHTFPAVLQSSGLYSLSSVVTVPSSSLGTQTYICNVNHKPSNTKVDKKVEPKSCDKTHTCPPCPAPEAAGGPSVFLFPPKPKDTLMISRTPEVTCVVVSVSHEDPEVKFNWYVDGVEVHNAKTKPREEQYNSTYRVVSVLTVLHQDWLNGKEYKCKVSNKALPAPIEKTISKAKGQPREPQVYVLPPSREEMTKNQVSLLCLVKGFYPSDIAVEWESNGQPENNYLTWPPVLDSDGSFFLYSKLTVDKSRWQQGNVFSCSVMHEALHNHYTQKSLSLSPG
light: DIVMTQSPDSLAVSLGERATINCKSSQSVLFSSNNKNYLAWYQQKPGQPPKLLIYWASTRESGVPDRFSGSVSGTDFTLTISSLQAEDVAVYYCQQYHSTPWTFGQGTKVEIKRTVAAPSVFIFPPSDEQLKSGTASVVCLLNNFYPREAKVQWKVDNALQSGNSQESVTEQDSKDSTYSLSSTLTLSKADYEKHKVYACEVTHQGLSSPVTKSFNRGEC
B4: HC3B236 (CD3B450-LH-scFv-Fc x MHGB738-Fab-Fc) (bispecific antibody, human IgG1, kappa, L234A L235A)
scFv: QSALTQPASVSGSPGQSITISCTGTSSNIGTYKFVSWYQQHPGKAPKVMIYEVSKRPSGVSNRFSGSKSGNTASLTISGLQAEDEADYYCVSYAGSGTLLFGGGTKLTVLGGSEGKSSGSGSESKSTGGSQVQLQQSGPGLVKPSQTLSLTCAISGDSVFNNNAAWSWIRQSPSRGLEWLGRTYYRSKWLYDYAVSVKSRITINPDTSKNQFSLQLNSVTPEDTAVYYCARGYSSSFDYWGQGTLVTVSSEPKSSDKTHTCPPCPAPEAAGGPSVFLFPPKPKDTLMISRTPEVTCVVVSVSHEDPEVKFNWYVDGVEVHNAKTKPREEQYNSTYRVVSVLTVLHQDWLNGKEYKCKVSNKALPAPIEKTISKAKGQPREPQVYVYPPSREEMTKNQVSLTCLVKGFYPSDIAVEWESNGQPENNYKTTPPVLDSDGSFALVSKLTVDKSRWQQGNVFSCSVMHEALHNHYTQKSLSLSPG
heavy: QVQLQQSGPGLVKPSQTLSLTCAISGDSVSSNRAAWNWIRQSPSRGLEWLGRTYYRSKWYNDYAVSVKSRITINPDTSKNQISLQLNSVTPEDTAVYYCARVRPGIPFDYWGQGTPVTVSSASTKGPSVFPLAPSSKSTSGGTAALGCLVKDYFPEPVTVSWNSGALTSGVHTFPAVLQSSGLYSLSSVVTVPSSSLGTQTYICNVNHKPSNTKVDKKVEPKSCDKTHTCPPCPAPEAAGGPSVFLFPPKPKDTLMISRTPEVTCVVVSVSHEDPEVKFNWYVDGVEVHNAKTKPREEQYNSTYRVVSVLTVLHQDWLNGKEYKCKVSNKALPAPIEKTISKAKGQPREPQVYVLPPSREEMTKNQVSLLCLVKGFYPSDIAVEWESNGQPENNYLTWPPVLDSDGSFFLYSKLTVDKSRWQQGNVFSCSVMHEALHNHYTQKSLSLSPG
light: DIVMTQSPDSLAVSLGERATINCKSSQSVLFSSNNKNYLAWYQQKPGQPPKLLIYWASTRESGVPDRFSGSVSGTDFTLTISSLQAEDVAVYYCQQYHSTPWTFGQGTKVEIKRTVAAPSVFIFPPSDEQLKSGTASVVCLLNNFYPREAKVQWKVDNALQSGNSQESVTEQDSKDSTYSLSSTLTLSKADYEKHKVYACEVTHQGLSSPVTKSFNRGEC
B5: HC3B237 (CD3W246-LH-scFv-Fc x MHGB738-Fab-Fc) (bispecific antibody, human IgG1, kappa, L234A L235A)
scFv: DIQMTQSPSSLSASVGDRVTITCRARQSIGTAIHWYQQKPGKAPKLLIKYASESISGVPSRFSGSGSGTDFTLTISSVQPEDFATYYCQQSGSWPYTFGQGTKLEIKGGSEGKSSGSGSESKSTGGSEVQLVESGGGLVKPGGSLRLSCAASGFTFSRYNMNWVRQAPGKGLEWVSSISTSSNYIYYADSVKGRFTFSRDNAKNSLDLQMSGLRAEDTAIYYCTRGWGPFDYWGQGTLVTVSSEPKSSDKTHTCPPCPAPEAAGGPSVFLFPPKPKDTLMISRTPEVTCVVVSVSHEDPEVKFNWYVDGVEVHNAKTKPREEQYNSTYRVVSVLTVLHQDWLNGKEYKCKVSNKALPAPIEKTISKAKGQPREPQVYVYPPSREEMTKNQVSLTCLVKGFYPSDIAVEWESNGQPENNYKTTPPVLDSDGSFALVSKLTVDKSRWQQGNVFSCSVMHEALHNHYTQKSLSLSPGK
heavy: QVQLQQSGPGLVKPSQTLSLTCAISGDSVSSNRAAWNWIRQSPSRGLEWLGRTYYRSKWYNDYAVSVKSRITINPDTSKNQISLQLNSVTPEDTAVYYCARVRPGIPFDYWGQGTPVTVSSASTKGPSVFPLAPSSKSTSGGTAALGCLVKDYFPEPVTVSWNSGALTSGVHTFPAVLQSSGLYSLSSVVTVPSSSLGTQTYICNVNHKPSNTKVDKKVEPKSCDKTHTCPPCPAPEAAGGPSVFLFPPKPKDTLMISRTPEVTCVVVSVSHEDPEVKFNWYVDGVEVHNAKTKPREEQYNSTYRVVSVLTVLHQDWLNGKEYKCKVSNKALPAPIEKTISKAKGQPREPQVYVLPPSREEMTKNQVSLLCLVKGFYPSDIAVEWESNGQPENNYLTWPPVLDSDGSFFLYSKLTVDKSRWQQGNVFSCSVMHEALHNHYTQKSLSLSPG
light: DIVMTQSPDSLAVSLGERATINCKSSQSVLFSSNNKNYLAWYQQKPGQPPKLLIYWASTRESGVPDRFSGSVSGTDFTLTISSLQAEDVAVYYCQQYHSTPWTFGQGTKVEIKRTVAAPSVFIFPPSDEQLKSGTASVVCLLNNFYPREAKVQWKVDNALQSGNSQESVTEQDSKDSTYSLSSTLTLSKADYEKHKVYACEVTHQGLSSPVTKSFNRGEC
B6: HC3B235 (CD3B219-LH-scFv-Fc x MHGB738-Fab-Fc) (bispecific antibody, human IgG1, kappa, L234A L235A)
scFv: QTVVTQEPSLTVSPGGTVTLTCRSSTGAVTTSNYANWVQQKPGQAPRGLIGGTNKRAPGTPARFSGSLLGGKAALTLSGVQPEDEAEYYCALWYSNLWVFGGGTKLTVLGGSEGKSSGSGSESKSTGGSEVQLVESGGGLVQPGGSLRLSCAASGFTFNTYAMNWVRQAPGKGLEWVARIRSKYNNYATYYAASVKGRFTISRDDSKNSLYLQMNSLKTEDTAVYYCVRHGNFGNSYVSWFAYWGQGTLVTVSSEPKSSDKTHTCPPCPAPEAAGGPSVFLFPPKPKDTLMISRTPEVTCVVVSVSHEDPEVKFNWYVDGVEVHNAKTKPREEQYNSTYRVVSVLTVLHQDWLNGKEYKCKVSNKALPAPIEKTISKAKGQPREPQVYVYPPSREEMTKNQVSLTCLVKGFYPSDIAVEWESNGQPENNYKTTPPVLDSDGSFALVSKLTVDKSRWQQGNVFSCSVMHEALHNHYTQKSLSLSPG
heavy: QVQLQQSGPGLVKPSQTLSLTCAISGDSVSSNRAAWNWIRQSPSRGLEWLGRTYYRSKWYNDYAVSVKSRITINPDTSKNQISLQLNSVTPEDTAVYYCARVRPGIPFDYWGQGTPVTVSSASTKGPSVFPLAPSSKSTSGGTAALGCLVKDYFPEPVTVSWNSGALTSGVHTFPAVLQSSGLYSLSSVVTVPSSSLGTQTYICNVNHKPSNTKVDKKVEPKSCDKTHTCPPCPAPEAAGGPSVFLFPPKPKDTLMISRTPEVTCVVVSVSHEDPEVKFNWYVDGVEVHNAKTKPREEQYNSTYRVVSVLTVLHQDWLNGKEYKCKVSNKALPAPIEKTISKAKGQPREPQVYVLPPSREEMTKNQVSLLCLVKGFYPSDIAVEWESNGQPENNYLTWPPVLDSDGSFFLYSKLTVDKSRWQQGNVFSCSVMHEALHNHYTQKSLSLSPG
light: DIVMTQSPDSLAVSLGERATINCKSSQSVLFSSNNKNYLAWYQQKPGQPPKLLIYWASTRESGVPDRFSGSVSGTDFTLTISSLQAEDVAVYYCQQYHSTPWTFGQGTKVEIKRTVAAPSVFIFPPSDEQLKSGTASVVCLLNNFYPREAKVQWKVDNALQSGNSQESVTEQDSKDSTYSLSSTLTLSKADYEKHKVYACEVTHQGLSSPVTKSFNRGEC

The target in the experiment is HLA-G on NCI-H2009-b2m target cells (human, UniProt P17693 25-338). The experiment is described as follows: cell-based or functional assay.
On to B1, for which the “Cytotoxicity, EC50 (M); T cell-mediated cytotoxicity against NCI-H2009-b2m cells, 72 hr, E:T 3:1” value amounted to 6.77e-12 M. The same measure for B2: 1.26e-10 M; for B3: 1.73e-11 M; for B4: 4.54e-09 M. As for B5, the “Cytotoxicity, EC50 (M); T cell-mediated cytotoxicity against NCI-H2009-b2m cells, 72 hr, E:T 3:1” value was found to be 1.33e-10 M. The same measure for B6: 8.37e-11 M.
